Experimental data taken from the DeepSol protein solubility set.

Test: soluble on expression in E. coli; label from the status in PepcDB or PDB records

Sequence	soluble on expression in E. coli
MNTEIEIIATDKVSNQAAMRSVLVMEQWGNGETYSEERWVERGRQAVRQTMEGMFELGRALIILKEHTEHGRFMEIVKSQFGLGIAETSRLMSATRRFATPQMQKAAPKLMDLGKSKLLELLVEEDVTLVGLAEGEEVNGMTFDDVDRMTVRELRVALRESRENLAAKDEVMKTKTAKIDELAEKLAKKQTVVREPKAEDVGSELAMQLTSLEVGIRSQVSRLKDLFDQLNAHSEAHGISHQAKMVGTLNQIILDCEQLRESYALPTEAPTDNVPEWLGGETGEGDESGND	not soluble
MNKKELIDILLYDVALEHSAIIQYLYNVFLIGDPEITNEIESIARQEMRHLKWFAQKVVELGGKVTLNRIEEAIKVGQSWEEMLKNDVDAEEEAIKIYSQQLEIVKDDSVKKLLDRVINDEMRHRDEFSEMLEELKNKKIEEAKQEAGIDSEIFNILNKLLQKEYRLILDYLYHFFHSKTWQEKDTSLDIAIESMFHMGELGEKIGELGGYPDLSLPKAKHFKGFTPEEVIEDIKEEETASRMYEENAKKVTREDLVKLFKWFEKQEDYHAQRLKELFRKMNRFTIGGLGEES	not soluble
MSLAKAYDHLFKLLLIGDSGVGKTCLIIRFAEDNFNNTYISTIGIDFKIRTVDIEGKKIKLQVWDTAGQERFKTITTAYYRGAMGIILVYDITDEKSFENIQNWMKSIKENASAGVERLLLGNKCDMEAKRKVQKEQADKLAREHGIRFFETSAKSSMNVDEAFSSLARDILLKSGGRRSGNEGHHHHHH	soluble
MSLASISLPVGGRLLPYELTGRPVPLKGRDAAAFPRVAFAAAHVVADPLADNDPWVTPAIDWERTLAFRHRLWDLGLGVAESMDTAQRGMGLGWPEARELIGRSLSEARGRSGALIACGAGTDHLVPGPNVTIDEILRAYESQIETIEAEGGRIILMASRALAAAAKGPEDYFRVYDRILSQVKEPVIIHWLGEMFDPALEGYWGNADHMAAMKTCLDVIEAHAAKVDGIKISLLSKKKEIVMRRQLPKGVRMYTGDDFNYAELISGDEEGYSDALLGIFDAIAPVASAALEALGGGRNGEFFELLDPTVPLSRHIFKAPTRFYKTGVVFLAYLNGLQDHFAMIGGQQSARSLVHLAELFRLADRAGVLQDPELAAGRMRRVLAVNGVAEGHHHHHH	soluble
MFEINKQIGIYIHFPWCVRKCPYCDFNSHPIKDDSYLSEQYYQKLIADFDTHLDDLQAREVISIFIGGGTPSLFKAEYLDKVLQHITKNTKISINCEITLEMNPGTVERGSILSYQNIGINRISLGVQSFQDDKLKILGRIHNCENVYTTIDEIKNSKISNFNIDIMHGLPNQSFDDGIFDITQAIAMQPTHISWYQLTIEPNTLFAAKRPKFPDEEILESIEIAGKEALAHAGFKQYEVSAFAKNTLRSIHNSNYWMFGDYIGIGAGAHSKITNLKTKQIKRVWKHKHPKIYTQTDKFIKDSNIVTQDEIIYEFMLNTLRLKNGFKLSEFEQQTFLSSNIISQKLQLGIDKGLLELNANQIKPTAKGYLFLNDCINIFS	not soluble
MPKKFASENPKVTAARDRKATAKKDEADKKAKATEDAKWVDNDKLNNRKMQRKEDDEKKREEALRRKEENRKLAEEEMSSLGNKKPAGAATQKVTRAHIHIRKEDEERINRELEEKRKQEAQKIEVAGDLLVENLNKLEVEEGEARNVDDALKVLGEEKALDDDKHPEKRMRAAYLAFEEARLPELKLNHPTFRLSQLKQILKKEWQKSPENPLNARLLALNS	soluble
MRSHNLFGDMCEAFMTKYVMTELRPKTQTLYKSTFNKYVTPYKNIDIERYKYTDWIAYFDWVKKESSSANAGSVLKRFKAVANWAKARGQIKHSHLIDIPIKLEHHHHHH	not soluble
MEGLNVLVTGSTCGLGLHTAKILFKKGANVILTCRDEIRGRHAVESLLSGVSQEQSQKEAERIHLFTLDVTNYNSICNFTDEISRMFKYLHVIINNAGIMGMPFELSVDGIEMHFATNVFGHYVVVERLLPLLLKTDRPDFKSRVIVVSSGLYRNAEAIPQVSKLLGQKTYDYSPKQAYAFSKLANCLYTGALSKMLEPHNVGVYCVRPGFVNGTELGRETHWILRALAAPIIWFIAKTLEQGCETIVYLAETSGNQLKNGSMYYERKEEAYNEMVEVTSIRQVWAILRHLEDTVWKRNTQMTDEQRNHGEMVRELLNESLIV	not soluble
